The values below come from US20090092600A1 (Dana-Farber, published 2009).

The assay has as its target T1, GST (glutathione-S-transferase) (UniProt P08515 1-218 = GST).
T1 construct: Control protein in the GST pull-down
Briefly: GST pull-down on glutathione beads, immunoblot with anti-His or anti-MUC1-C. How it is done:
The binding of MUC1 to HSF1 could be direct or indirect, for example, through a third protein. To determine if the interaction between MUC1 and HSF1 is a direct, physical interaction, in vitro binding assays was performed. GST- and GST-STAT3 polypeptides were incubated with purified His-tagged MUC1-CD (similar to GST-HSF1-His-MUC1 experiments described above). The protein mixtures were then incubated with glutathione beads, which bind to the GST proteins and associated binding partners if present. The glutathione bead adsorbates were washed and immunoblotted with antibodies specific for His tags or to MUC1-C (as described above). His-tagged MUC1 was present in GST-STAT3 adsorbates but not GST-adsorbates.

T1 sequence (P08515 whole entry): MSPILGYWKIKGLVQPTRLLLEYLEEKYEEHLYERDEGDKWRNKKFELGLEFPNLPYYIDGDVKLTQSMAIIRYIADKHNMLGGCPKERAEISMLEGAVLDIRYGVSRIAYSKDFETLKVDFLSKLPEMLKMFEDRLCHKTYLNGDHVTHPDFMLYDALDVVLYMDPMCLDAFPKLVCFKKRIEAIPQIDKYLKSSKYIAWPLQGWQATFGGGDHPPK

B1: His-tagged MUC1-CD (MUC1 cytoplasmic domain) (other)
chain: CQCRRKNYGQLDIFPARDTYHPMSEYPTYHTHGRYVPPSSTDRSPYEKVSAGNGGSSLSYTNPAVAAASANL
notes: Purified recombinant protein; also called His-MUC1; not shown: His tag
With B1, the binding result was “no binding”.
